From the Human Domainome abundance scans (Beltran et al. 2025) come the findings set out here.

To fix the notation:
B1: Activity-dependent neuroprotector homeobox protein, residues 770 to 810; numbered along this chain, Q9H2P0 (parent)
chain: FLTKYFNKQPYPTRREIEKLAASLWLWKSDIASHFSNKRKK

± gives the uncertainty stated by the source.

The variants in this series derive from B1. The experiment in a line: abundance fitness (aPCA) (normalised: wild type 0, dead -1); higher = more abundant; growth selection in yeast, the domain comes from the species named. The note with it: Homo sapiens.
With FLTKYFNKQPYPTAREIEKLAASLWLWKSDIASHFSNKRKK [R14A], the abundance fitness was -0.595 ± 0.22.

For the variant FLTKYFNKQPYGTRREIEKLAASLWLWKSDIASHFSNKRKK [P12G], the abundance fitness stood at 0.099 ± 0.051. On to FLTKYPNKQPYPTRREIEKLAASLWLWKSDIASHFSNKRKK [F6P], for which the abundance fitness is -0.942 ± 0.071. For the variant FLTKYDNKQPYPTRREIEKLAASLWLWKSDIASHFSNKRKK [F6D], the abundance fitness is -0.837 ± 0.085. As for FLTKYCNKQPYPTRREIEKLAASLWLWKSDIASHFSNKRKK [F6C], the figure is -0.223 ± 0.054.

Regarding FLTKYFNKQPYPTRQEIEKLAASLWLWKSDIASHFSNKRKK [R15Q], the abundance fitness is -0.162 ± 0.085.

FLTKYFNKQPYPTRVEIEKLAASLWLWKSDIASHFSNKRKK [R15V]: the abundance fitness is -0.149 ± 0.13.

As to FLTKYFNKQPYPTRHEIEKLAASLWLWKSDIASHFSNKRKK [R15H], the abundance fitness is -0.384 ± 0.11.

With FLTKNFNKQPYPTRREIEKLAASLWLWKSDIASHFSNKRKK [Y5N], the abundance fitness is -0.564 ± 0.25. As for FLTKPFNKQPYPTRREIEKLAASLWLWKSDIASHFSNKRKK [Y5P], the figure is -0.526 ± 0.23; as for FLTKYFNKQPYPTRREIEKLAASLHLWKSDIASHFSNKRKK [W25H], 0.071 ± 0.086. For FLTKYFNKQPYPTRREIEKLAASLRLWKSDIASHFSNKRKK [W25R], the abundance fitness was 0.254 ± 0.052. Turning to FLTKYFNKQPYPTRREIEKLAASLCLWKSDIASHFSNKRKK [W25C], the abundance fitness was -0.14 ± 0.071. As for FLTKYFNKQPYPTRREIEKLAASLYLWKSDIASHFSNKRKK [W25Y], the abundance fitness is -0.233 ± 0.22. As for FLTKYFNKQPYPTRREIEKLAASLPLWKSDIASHFSNKRKK [W25P], the figure is -0.176 ± 0.065; as for FLTKYFNKQPYPTRREIEKLARSLWLWKSDIASHFSNKRKK [A22R], -0.027 ± 0.052; as for FLTKYFNKQPYPTRREIEKLAWSLWLWKSDIASHFSNKRKK [A22W], -0.193 ± 0.11. For FLTKYFNKQPYPTRREIEKLAFSLWLWKSDIASHFSNKRKK [A22F], the abundance fitness is -0.594 ± 0.077. To FLTKYFNWQPYPTRREIEKLAASLWLWKSDIASHFSNKRKK [K8W] belongs -0.942 ± 0.18. Regarding FLTKYFNTQPYPTRREIEKLAASLWLWKSDIASHFSNKRKK [K8T], the abundance fitness was -0.951 ± 0.094. As for FLTKYFNAQPYPTRREIEKLAASLWLWKSDIASHFSNKRKK [K8A], the abundance fitness was -1.12 ± 0.094. To FLTKYFNSQPYPTRREIEKLAASLWLWKSDIASHFSNKRKK [K8S] belongs -0.995 ± 0.074; to FLTKYFNRQPYPTRREIEKLAASLWLWKSDIASHFSNKRKK [K8R], -0.22 ± 0.051. Consider FLTKYFNKQPYPTRREIEKLAASQWLWKSDIASHFSNKRKK [L24Q], for which the abundance fitness is -0.783 ± 0.22. To FLTKYFNKQPYPTRREIEKLAASEWLWKSDIASHFSNKRKK [L24E] belongs -0.82 ± 0.2; to FLTKYFNKQPYPTRREIAKLAASLWLWKSDIASHFSNKRKK [E18A], -0.025 ± 0.047.

For FLTKYFNKQPYPTRREIVKLAASLWLWKSDIASHFSNKRKK [E18V], the abundance fitness was -0.509 ± 0.063. FLTKYFNKQPYPTRREIDKLAASLWLWKSDIASHFSNKRKK [E18D]: the abundance fitness was -0.109 ± 0.15.

FLTKYFNKQPYPTRREIYKLAASLWLWKSDIASHFSNKRKK [E18Y]: the abundance fitness was -0.378 ± 0.14. Regarding FLTKYFNKQPYPTRREIEKLAASLWLWKSDIAHHFSNKRKK [S33H], the abundance fitness is 0.018 ± 0.091. For the variant FLTKYFNKQPYPTRREIEKLAASLWLWKSDIATHFSNKRKK [S33T], the abundance fitness is -0.076 ± 0.06. To FLTKYFNKQPYPTRREIEKLAASLWLWKSDIANHFSNKRKK [S33N] belongs -0.284 ± 0.13. As for FLTKYFNKQPYPTRREIEKLAASLWLWKSDIASHFSNKCKK [R39C], the figure is -0.189 ± 0.11; as for FLTKYFNKQPYPTRREIEKLAASLWLWKSDIASHFSNKNKK [R39N], -0.012 ± 0.12.

In the case of FLTKYFNKQPYPTRREIEKLAASLWLWKSDIASHFSNKSKK [R39S], the abundance fitness is -0.085 ± 0.051. As for FLEKYFNKQPYPTRREIEKLAASLWLWKSDIASHFSNKRKK [T3E], the figure is -0.059 ± 0.13; as for FLMKYFNKQPYPTRREIEKLAASLWLWKSDIASHFSNKRKK [T3M], -0.395 ± 0.12; as for FLTKYFNKQPYPTRREIEKLAASLWMWKSDIASHFSNKRKK [L26M], 0.115 ± 0.084. As for FLTKYFNKQPYPTRREIEKLAASLWDWKSDIASHFSNKRKK [L26D], the figure is -0.004 ± 0.075; as for FLTKYFNKQPYPTRREIEKLAASLWCWKSDIASHFSNKRKK [L26C], -0.014 ± 0.068; as for FLTKYFNKQPYPTRREIEKHAASLWLWKSDIASHFSNKRKK [L20H], -0.269 ± 0.085. For the variant FLTKYFNKQPYPTRREIEKRAASLWLWKSDIASHFSNKRKK [L20R], the abundance fitness was -0.144 ± 0.064.

Consider FLTKYFNKQPYPTRREIEKWAASLWLWKSDIASHFSNKRKK [L20W], for which the abundance fitness amounted to 0.257 ± 0.085. In the case of FLTKYFNKQPYPTRREIEKDAASLWLWKSDIASHFSNKRKK [L20D], the abundance fitness was -0.322 ± 0.11. To FLTKYFNKQPYPTRREIEKKAASLWLWKSDIASHFSNKRKK [L20K] belongs 0.036 ± 0.14; to FLTKYFNKQPYPTRREIEKGAASLWLWKSDIASHFSNKRKK [L20G], -0.181 ± 0.069. Turning to FLTKYFNKQPYPTRREIEKLAASLWLWKSDLASHFSNKRKK [I31L], the abundance fitness is -0.043 ± 0.05. Take FLTKYFNKQPYPTRREIEKLAASLWLWKSDKASHFSNKRKK [I31K]: the abundance fitness was -0.276 ± 0.084. For FLTKYFNKQPYPTRREIEKLAASLWLWKSDWASHFSNKRKK [I31W], the abundance fitness is -0.129 ± 0.086. FLTKYFNKTPYPTRREIEKLAASLWLWKSDIASHFSNKRKK [Q9T]: the abundance fitness is -0.053 ± 0.063.

With FLTKYFNKIPYPTRREIEKLAASLWLWKSDIASHFSNKRKK [Q9I], the abundance fitness is -0.074 ± 0.1. As for FLTKYFNKSPYPTRREIEKLAASLWLWKSDIASHFSNKRKK [Q9S], the figure is -0.139 ± 0.062; as for FLTKYFNKRPYPTRREIEKLAASLWLWKSDIASHFSNKRKK [Q9R], 0.039 ± 0.059; as for FLTKYFNKGPYPTRREIEKLAASLWLWKSDIASHFSNKRKK [Q9G], -0.133 ± 0.12. For the variant FLTKYFNKQPYPIRREIEKLAASLWLWKSDIASHFSNKRKK [T13I], the abundance fitness is 0.101 ± 0.11.

As for FLTKYFNKQPYPYRREIEKLAASLWLWKSDIASHFSNKRKK [T13Y], the abundance fitness came out at 0.083 ± 0.18. To FLTKYFNKQPYPGRREIEKLAASLWLWKSDIASHFSNKRKK [T13G] belongs 0.16 ± 0.051; to FLTRYFNKQPYPTRREIEKLAASLWLWKSDIASHFSNKRKK [K4R], -0.549 ± 0.11; to FVTKYFNKQPYPTRREIEKLAASLWLWKSDIASHFSNKRKK [L2V], -0.369 ± 0.05.

For FKTKYFNKQPYPTRREIEKLAASLWLWKSDIASHFSNKRKK [L2K], the abundance fitness was -0.622 ± 0.3. As to FLTKYFNKQPYPTRREIEKLAASLWLWKSDIASHFPNKRKK [S36P], the abundance fitness was -0.047 ± 0.059.
